In publication PMC8346469:

Target: homo-oligomeric archaeal chaperonin from Methanococcus maripaludis (MmCpn) (Methanococcus maripaludis)
Assay: cryo-EM structure; MmCpn 4 uM mixed on ice with 32 uM ATP (1 hexadecamer to 8 ATP), frozen immediately; single-particle reconstruction with D8 symmetry (also C1), 3.9 Å; focused classification of rings and subunits

stoichiometry N: 16 subunits
Substance: homo-oligomeric archaeal chaperonin from Methanococcus maripaludis (MmCpn) (natural protein)
